These results are taken from paper doi:10.1101/2024.03.19.585040.

The target of experiment [1] is Fatty acid kinase FakA (Staphylococcus aureus), wild type (Staphylococcus aureus). The experiment in a line: mass photometry.
Experiment [2] shares this target. In words: SEC-SAXS. (SEC sorts molecules by how far they enter the pores of the column.)
Experiment [3] has the same target. The experiment in a line: mass photometry. The source holds these as a separate data set.
Experiment [4] deals with His-tagged FakB2 (Staphylococcus aureus) (Staphylococcus aureus). The experiment in a line: BLI. On the technique in general: BLI is a label-free optical method that tracks binding on a fibre tip over time.
Experiment [5] deals with FakA H282A, H284A (Staphylococcus aureus) (Staphylococcus aureus). In words: mass photometry.
Experiment [6] shares this target. In words: mass photometry. This is another data set of the same source.

Where two headings read alike, the source gives them in different places.

Consider “Fatty acid kinase FakA (Staphylococcus aureus), wild type (enzyme)”, for which the percent of the protein in the dimer peak is 57% in experiment [1] and 77% in experiment [3]. For the same substance, the stoichiometry N in experiment [2] and in experiment [3] was 2 throughout. In experiment [4], the Kd is 4.34 nM.
On to “FakA H282A, H284A (Staphylococcus aureus) (enzyme)”, for which the percent of the protein in the dimer peak in experiment [5] came out at 24%; in experiment [6], 63%.

In general, stoichiometry N refers to a count of units in the complex or per binding partner. Usually Kd stands for the free concentration of one partner at which half of the binding sites on the other are occupied at equilibrium, for simple one-to-one binding. Low values mean higher affinity, high ones lower affinity.
